Results on five molecules are retold here after US20200040101A1 (ASKGENE PHARMA, published 2020).

Experiment [1] deals with T1, human Claudin 18.2 (CLDN18.2) expressed on cells (human, UniProt P56856-2 1-261).
T1 construct: whole, on cells; also called CLD18.2; CLD18A2
The experiment can be described thus: FACS, hybridoma subclone supernatant, CLDN18.2 and CLDN18.1 cells in one plot. In general terms: A flow cytometer gives signals particle by particle.

The target in a further experiment is T2, Claudin-10.
T2 construct: expressed on transiently transfected HEK 293 cells; the sheet prints only the number after Claudin-1
T2 sequence (P78369 1-228, species assumed, looked up): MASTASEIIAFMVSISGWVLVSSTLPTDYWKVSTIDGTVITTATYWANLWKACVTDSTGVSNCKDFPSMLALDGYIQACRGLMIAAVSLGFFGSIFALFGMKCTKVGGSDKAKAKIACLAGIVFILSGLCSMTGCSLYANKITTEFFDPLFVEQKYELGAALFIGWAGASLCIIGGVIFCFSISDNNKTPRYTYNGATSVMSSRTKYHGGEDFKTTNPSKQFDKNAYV
The experiment can be described thus: FACS, transfected HEK 293 cells.

A further experiment deals with T3, Claudin-2.
T3 construct: expressed on transiently transfected HEK 293 cells; the sheet prints only the number after Claudin-1
T3 sequence (P57739 whole entry, species assumed, looked up): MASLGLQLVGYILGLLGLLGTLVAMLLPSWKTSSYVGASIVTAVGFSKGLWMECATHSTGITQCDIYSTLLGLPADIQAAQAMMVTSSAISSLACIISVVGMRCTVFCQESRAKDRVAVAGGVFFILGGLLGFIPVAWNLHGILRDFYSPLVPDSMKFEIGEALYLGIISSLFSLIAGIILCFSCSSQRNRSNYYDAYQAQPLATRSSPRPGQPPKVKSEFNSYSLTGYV
Briefly: FACS, transfected HEK 293 cells.

In a further experiment the target is T4, Claudin-9.
T4 construct: expressed on transiently transfected HEK 293 cells; the sheet prints only the number after Claudin-1
Briefly: FACS, transfected HEK 293 cells.

The target of the next experiment is T5, Claudin-34.
T5 construct: expressed on transiently transfected HEK 293 cells; the sheet prints only the number after Claudin-1
The experiment can be described thus: FACS, transfected HEK 293 cells.

Another experiment addresses T6, Claudin-3.
T6 construct: expressed on transiently transfected HEK 293 cells; the sheet prints only the number after Claudin-1
Briefly: FACS, transfected HEK 293 cells.

Another experiment has as its target T7, Claudin-12.
T7 construct: expressed on transiently transfected HEK 293 cells; the sheet prints only the number after Claudin-1
The experiment can be described thus: FACS, transfected HEK 293 cells.

The target of the next experiment is T8, Claudin-1.
T8 construct: expressed on transiently transfected HEK 293 cells
Briefly: FACS, transfected HEK 293 cells.

For another experiment, the target named is T9, Claudin-11.
T9 construct: expressed on transiently transfected HEK 293 cells; the sheet prints only the number after Claudin-1
T9 sequence (O75508 whole entry, species assumed, looked up): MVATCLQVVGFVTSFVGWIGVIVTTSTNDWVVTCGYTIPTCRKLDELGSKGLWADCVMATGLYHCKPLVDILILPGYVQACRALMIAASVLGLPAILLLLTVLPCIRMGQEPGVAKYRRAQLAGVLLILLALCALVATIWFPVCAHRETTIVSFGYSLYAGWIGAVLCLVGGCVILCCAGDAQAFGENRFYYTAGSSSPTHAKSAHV
Briefly: FACS, transfected HEK 293 cells.

For experiment [2], the target named is T10, CLDN 7 expressed on HEK 293 cells (UniProt O95471 1-211, limits assumed).
T10 construct: whole, on cells
T10 sequence (looked up): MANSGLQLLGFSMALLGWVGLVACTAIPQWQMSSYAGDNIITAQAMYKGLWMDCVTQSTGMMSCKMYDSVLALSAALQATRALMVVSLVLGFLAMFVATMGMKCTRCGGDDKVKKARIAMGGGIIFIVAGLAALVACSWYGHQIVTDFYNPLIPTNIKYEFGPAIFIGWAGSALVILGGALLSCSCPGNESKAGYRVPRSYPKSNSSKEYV
The experiment can be described thus: FACS, transfected HEK 293 cells.

A further experiment addresses T11, Claudin-8.
T11 construct: expressed on transiently transfected HEK 293 cells; the sheet prints only the number after Claudin-1
The experiment can be described thus: FACS, transfected HEK 293 cells.

The next experiment concerns the target T12, Claudin-5.
T12 construct: expressed on transiently transfected HEK 293 cells; the sheet prints only the number after Claudin-1
T12 sequence (O00501 whole entry, species assumed, looked up): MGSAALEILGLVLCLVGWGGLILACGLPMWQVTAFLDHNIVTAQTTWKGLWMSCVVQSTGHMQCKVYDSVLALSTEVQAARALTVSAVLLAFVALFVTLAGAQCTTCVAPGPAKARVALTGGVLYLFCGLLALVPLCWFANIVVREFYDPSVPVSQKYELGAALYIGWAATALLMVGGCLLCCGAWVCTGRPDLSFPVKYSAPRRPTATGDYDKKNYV
The experiment can be described thus: FACS, transfected HEK 293 cells.

For a further experiment, the target named is T13, Claudin-14.
T13 construct: expressed on transiently transfected HEK 293 cells; the sheet prints only the number after Claudin-1
Briefly: FACS, transfected HEK 293 cells.

The next experiment concerns the target T14, Claudin-19.
T14 construct: expressed on transiently transfected HEK 293 cells; the sheet prints only the number after Claudin-1
T14 sequence (Q8N6F1 whole entry, species assumed, looked up): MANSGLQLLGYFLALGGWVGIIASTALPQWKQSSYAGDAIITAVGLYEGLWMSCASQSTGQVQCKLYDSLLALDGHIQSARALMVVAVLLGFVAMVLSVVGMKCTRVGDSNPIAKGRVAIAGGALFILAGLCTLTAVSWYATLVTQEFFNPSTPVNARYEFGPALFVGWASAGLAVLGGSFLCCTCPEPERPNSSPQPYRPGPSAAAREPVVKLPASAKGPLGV
The experiment can be described thus: FACS, transfected HEK 293 cells.

Another experiment addresses T15, Claudin-23.
T15 construct: expressed on transiently transfected HEK 293 cells; the sheet prints only the number after Claudin-1
T15 sequence (Q96B33 1-292, species assumed, looked up): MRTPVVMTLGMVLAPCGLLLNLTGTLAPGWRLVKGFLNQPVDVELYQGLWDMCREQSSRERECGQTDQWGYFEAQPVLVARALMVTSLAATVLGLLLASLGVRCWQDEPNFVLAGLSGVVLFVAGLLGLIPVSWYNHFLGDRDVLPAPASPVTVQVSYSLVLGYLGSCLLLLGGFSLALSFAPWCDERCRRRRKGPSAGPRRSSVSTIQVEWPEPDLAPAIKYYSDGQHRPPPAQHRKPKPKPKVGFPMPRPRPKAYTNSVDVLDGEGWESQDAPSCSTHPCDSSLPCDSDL
The experiment can be described thus: FACS, transfected HEK 293 cells.

For another experiment, the target named is T16, Claudin-22.
T16 construct: expressed on transiently transfected HEK 293 cells; the sheet prints only the number after Claudin-1
Briefly: FACS, transfected HEK 293 cells.

A further experiment has as its target T17, Claudin-17.
T17 construct: expressed on transiently transfected HEK 293 cells; the sheet prints only the number after Claudin-1
T17 sequence (P56750 whole entry, species assumed, looked up): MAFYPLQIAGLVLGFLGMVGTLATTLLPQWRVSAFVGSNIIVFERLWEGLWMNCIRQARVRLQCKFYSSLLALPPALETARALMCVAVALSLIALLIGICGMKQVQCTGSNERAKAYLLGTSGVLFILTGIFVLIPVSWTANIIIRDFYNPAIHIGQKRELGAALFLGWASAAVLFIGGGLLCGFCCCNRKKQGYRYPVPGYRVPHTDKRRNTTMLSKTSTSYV
The experiment can be described thus: FACS, transfected HEK 293 cells.

The target in a further experiment is T18, Claudin-16.
T18 construct: expressed on transiently transfected HEK 293 cells; the sheet prints only the number after Claudin-1
T18 sequence (Q9Y5I7 1-235, species assumed, looked up): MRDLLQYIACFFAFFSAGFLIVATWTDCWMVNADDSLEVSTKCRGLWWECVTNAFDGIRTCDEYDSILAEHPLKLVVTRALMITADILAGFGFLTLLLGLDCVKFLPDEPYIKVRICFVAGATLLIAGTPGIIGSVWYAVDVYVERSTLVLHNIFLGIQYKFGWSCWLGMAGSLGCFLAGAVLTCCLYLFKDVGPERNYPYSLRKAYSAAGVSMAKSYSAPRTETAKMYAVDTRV
The experiment can be described thus: FACS, transfected HEK 293 cells.

The next experiment addresses T19, Claudin-4.
T19 construct: expressed on transiently transfected HEK 293 cells; the sheet prints only the number after Claudin-1
The experiment can be described thus: FACS, transfected HEK 293 cells.

Experiment [3] concerns the target T1, human Claudin 18.2 (CLDN18.2) expressed …. Briefly: FACS, transfected HEK 293 cells, first 18.2 column.
For experiment [4] the target is unchanged. The experiment can be described thus: FACS, HEK 293 cells expressing CLDN18.2.
For experiment [5] the target is unchanged. Briefly: FACS, transfected HEK 293 cells, second 18.2 column.

B1: 83G3 (mouse hybridoma subclone antibody) (antibody, V domains shown)
VH: QVQLQQSGAELAKPGASVKLSCKASGFTFTSYWIHWVKQRPGQGLEWIGYIDPSNTYTKFNQKFKDKATLTADKSSSTAYMQLNSLTFEDSAVYYCATGRGFAYWGQGTLVTVSS
VL: DIVMTQSPSSLTVTAGEKVTVSCKSSQSLFNSGNQKHYLTWYQQKPGQPPKLLIYRASTRESGVPDRFTGSGSGTDFTLTIRNVQAEDLAVYYCQNDYSFPLTFGAGTKLELK
notes: also remade as chimeric antibody with human IgG1 and kappa
For B1, the binding result in experiment [1] is given as “binds”.

B2: 79C4 (mouse hybridoma subclone antibody) (antibody, V domains shown)
VH: EVKLEESGGGLVQPGGSMKLSCVASGFTFSNYWMNWVRQSPEKGLEWVAEIRLKSKNYATHYAESVKGRFTISRDDSIGSVYLQMNNLRAEDTGIYYCARGHYGTNYGDYWGQGTSVTVSS
VL: DIQTTQSPSSLSASLGERVTLTCRASQEISGYLSWLQQKPDGTIKRLIYAASTLDSGVPKRFSGSRSGSDYSLTINSLESEDFVDYYCLQYDSSPWTFGGGTKLEIK
notes: also remade as chimeric antibody with human IgG1 and kappa (pFUSE vectors)
For the molecule B2, the binding result in experiment [1] is “binds”.

B3: 85H12 (mouse hybridoma subclone antibody) (antibody, V domains shown)
VH: EVKLEESGGGLVQPGGSMKLSCVASGFTFSNYWMNWVRQSPEKGLEWVAEIRLKSKNYATHYAESVKGRFTISRDDSIGSVYLQMNNLRAEDTGIYYCARGHYGTNYGDYWGQGTSVTVSS
VL: DIVMTQSPSSLTVTAGEKVTVSCKSSQSLFNSGNQKHYLTWYQQKPGQPPKLLIYRASTRESGVPDRFTGSGSGTDFTLTIRNVQAEDLAVYYCQNDYSFPLTFGAGTKLELK
notes: as for B1
Take B3: the binding result in [1] is given as “binds”.

B4: M5 (mutated version of M1) (antibody, V domains shown)
VH: QVQLVQSGAEVKKPGASVKVSCKASGYTFTSYVINWVRQATGQGLEWIGEIHPRGGNTYYSEKFRGRVTLTADTSISTAYMELSSLRSEDTAVYYCARLRRGNAMDYWDQGTTVTVSS
VL: DIVMTQSPSSLAVSLGEMATINCKSSQSLLNSGNQRNYLTWYQQKPGQPPKLLIYWASTRESGVPDRFSGSGSGTDFTLTISSLQAEDVAVYYCQNSYNYPYTFGQGTKLERK
notes: Humanized mouse antibody from 11E12 (hu11E12VHv1B with hu11E12VLv1); also called ASK-M5_DS; Molecule M5
The term EC50 (read off the curve) denotes the concentration at which the effect is half-maximal. A high value points to weaker potency. For B4, the MFI worked out at 22.3 with Claudin-10; 22 with Claudin-2; 21.7 in the experiment with Claudin-9; 24.1 in the experiment with Claudin-34; 23.3 in the experiment with Claudin-3; 21.6 in the experiment with Claudin-12. The MFI in the experiment with Claudin-1 came to 23.6; in the experiment with Claudin-11, 20.3; in experiment [2], 23.4; with Claudin-8, 20.8; with Claudin-5, 21.2; in the experiment with Claudin-14 it was 22.4. Further, the MFI with Claudin-19 was 21.3; in the experiment with Claudin-23, 21.7; with Claudin-22, 22.2; with Claudin-17, 21.9; in the experiment with Claudin-16, 21.8; with Claudin-4 it was 21.8. The MFI in experiment [3] is 3610; in [5] it was 2810. The “EC50 (read off the curve)” value in experiment [4] is roughly 0.3 µg/mL.

B5: ASK589-M1 (antibody, V domains shown)
VH: QVQLVQSGAEVKKPGASVKVSCKASGYTFTSYVINWVRQATGQGLEWIGEIHPRGGNTYYSEKFRGRVTLTADTSISTAYMELSSLRSEDTAVYYCAILRRGNAMDYWDQGTTVTVSS
VL: DIVMTQSPSSLAVSLGEMATINCKSSQSLLNSGNQRNYLTWYQQKPGQPPKLLIYWASTRESGVPDRFSGSGSGTDFTLTISSLQAEDVAVYYCQNSYNYPYTFGQGTKLERK
notes: Humanized mouse antibody from 11E12 (hu11E12VHv1 with hu11E12VLv1); also called Molecule M1; M1_DS
B5: the MFI stood at 23.2 in the experiment with Claudin-10; 22.3 in the experiment with Claudin-2; 20.5 with Claudin-9; 20.7 with Claudin-34; 21.4 with Claudin-3; 21.9 with Claudin-12. Besides, the MFI worked out at 23.4 with Claudin-1; 19.4 with Claudin-11; 21.5 in experiment [2]; 20.4 in the experiment with Claudin-8; 20 with Claudin-5; 20.1 with Claudin-14. Also, the MFI with Claudin-19 was determined as 20.5; in the experiment with Claudin-23 it was 19.3; with Claudin-22, 21.1; with Claudin-17 it was 21.7; in the experiment with Claudin-16, 21; in the experiment with Claudin-4, 20.7. The values for the MFI in experiment [3] and in experiment [5] were 4820 and 4650, respectively.
